Assay results as given in patent US20250074980A1 (BRIGHAM AND WOMEN S HOSPITAL, published 2025).

Target: T1, His-tagged CEACAM1 (human, UniProt P13688 35-428)
T1 construct: 45 kDa SPR analyte; also called CEACAM1-HIS; CEACAM1 analyte
T1 sequence: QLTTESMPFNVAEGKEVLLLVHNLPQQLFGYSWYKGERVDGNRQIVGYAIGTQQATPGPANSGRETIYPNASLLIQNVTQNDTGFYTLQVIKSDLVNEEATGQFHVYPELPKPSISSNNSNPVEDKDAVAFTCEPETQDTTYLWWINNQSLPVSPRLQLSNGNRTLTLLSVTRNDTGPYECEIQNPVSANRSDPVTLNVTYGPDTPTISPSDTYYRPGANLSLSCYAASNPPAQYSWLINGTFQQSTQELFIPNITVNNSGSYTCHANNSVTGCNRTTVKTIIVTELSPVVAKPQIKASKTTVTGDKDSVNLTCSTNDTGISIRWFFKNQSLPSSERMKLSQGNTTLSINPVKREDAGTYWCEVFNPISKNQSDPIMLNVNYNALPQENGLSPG
Assay: SPR single-cycle, supernatant IgG captured
Method: In order to assess the binding of the humanized, affinity matured reformatted lead IgGs, single-cycle kinetics analysis was performed on crude supernatants using a Biacore T200 running Biacore T200 Control Software V2.0.1 and Biacore T200 Evaluation Software V3.0. Antibodies were diluted in HBS-P+ to a final concentration of 0.5 μg/ml. At the start of each cycle, antibodies were loaded onto Fc2, Fc3 and Fc4 of the Protein A chip. IgGs were captured at a flow rate of 10 μl/min to give an immobilisation level (RL) of ˜100 RU (a level calculated to obtain a Rₘₐₓ of ˜50-150 RU once the analyte is bound). The surface was then allowed to stabilize. Single-cycle kinetics data was obtained with CEACAM1 as the analyte at a flow rate of 80 μl/min to minimize any potential mass transfer effects. Multiple repeats with the parent (VH1/Vκ8 S29A) antibody were performed to check the stability of the surface and analyte over the kinetic cycles. The signal from the reference channel Fc1 (no antibody) was subtracted from that of Fc2, Fc3 and Fc4 to correct for differences in non-specific binding to the reference surface. A three point, two-fold dilution range from 70 nM to 280 nM CEACAM1 without regeneration between each concentration was used. The signal from each antibody blank run (no CEACAM1) was subtracted to correct for differences in surface stability. The association phase for the three injections of increasing concentrations of CEACAM1 was monitored for 80 seconds each time and a single dissociation phase was measured for 150 seconds following the last injection of CEACAM1. Regeneration of the Protein A surface was conducted using two injections of 10 mM glycine-HCL pH 1.5 followed by a stabilization period of 250 seconds.

| Binder | Kd [nM] | koff [s⁻¹] | kon [M⁻¹ s⁻¹] | relative KD to parent |
| --- | --- | --- | --- | --- |
| CP08A08/Vκ8 S29A (antibody, IgG4, V domains shown, IgG4 (S241P), kappa) VH: EVQLLESGGGLVQPGGSLRLSCAASGFIFTNHGMSWVRQAPGKGLEWVATISSGGTYTYYPDSVKGRFTISRDNSKNTLYLQMNSLKAEDTAMYYCARHDFDYDAAWFAYWGQGTLVTVSS VL: EIVLTQSPATLSLSPGERATLSCRANSAVSYMYWYQQKPGQAPRPWIYLTSNRATGVPARFSGSGSGTDYTLTISSLEPEDFAVYYCQQWSSNPPTFGQGTKLEIK | 1300 | 0.073 | 57000 | 0.4 |
| CP08D11/Vκ8 S29A (antibody, IgG4, V domains shown, IgG4 (S241P), kappa) VH: EVQLLESGGGLVQPGGSLRLSCAASGYSFSAHGMSWVRQAPGKGLEWVATISSGGTYTYYPDSVKGRFTISRDNSKNTLYLQMNSLKAEDTAMYYCARHDFDYDAAWFAYWGQGTLVTVSS VL: EIVLTQSPATLSLSPGERATLSCRANSAVSYMYWYQQKPGQAPRPWIYLTSNRATGVPARFSGSGSGTDYTLTISSLEPEDFAVYYCQQWSSNPPTFGQGTKLEIK | 2000 | 0.17 | 86000 | 0.3 |
| CP08C01/Vκ8 S29A (antibody, IgG4, V domains shown, IgG4 (S241P), kappa) VH: EVQLLESGGGLVQPGGSLRLSCAASGYSFSNHGMSWVRQAPGKGLEWVATISSGGTYTYYPDSVKGRFTISRDNSKNTLYLQMNSLKAEDTAMYYCARHDFDYDAAWFAYWGQGTLVTVSS VL: EIVLTQSPATLSLSPGERATLSCRANSAVSYMYWYQQKPGQAPRPWIYLTSNRATGVPARFSGSGSGTDYTLTISSLEPEDFAVYYCQQWSSNPPTFGQGTKLEIK | 1200 | 0.1 | 82000 | 0.5 |
| CP08B01/Vκ8 S29A (antibody, IgG4, V domains shown, IgG4 (S241P), kappa) VH: EVQLLESGGGLVQPGGSLRLSCAASGFTFSAHAMSWVRQAPGKGLEWVATISSGGTYTYYPDSVKGRFTISRDNSKNTLYLQMNSLKAEDTAMYYCARHDFDYDAAWFAYWGQGTLVTVSS VL: EIVLTQSPATLSLSPGERATLSCRANSAVSYMYWYQQKPGQAPRPWIYLTSNRATGVPARFSGSGSGTDYTLTISSLEPEDFAVYYCQQWSSNPPTFGQGTKLEIK | 610 | 0.044 | 72000 | 0.9 |
| CP08C04/Vκ8 S29A (antibody, IgG4, V domains shown, IgG4 (S241P), kappa) VH: EVQLLESGGGLVQPGGSLRLSCAASGFTFSSHGMSWVRQAPGKGLEWVATISSGGTYTYYPDSVKGRFTISRDNSKNTLYLQMNSLKAEDTAMYYCARHDFDYDAAWFAYWGQGTLVTVSS VL: EIVLTQSPATLSLSPGERATLSCRANSAVSYMYWYQQKPGQAPRPWIYLTSNRATGVPARFSGSGSGTDYTLTISSLEPEDFAVYYCQQWSSNPPTFGQGTKLEIK | 1200 | 0.26 | 220000 | 0.5 |
| CP08B11/Vκ8 S29A (antibody, IgG4, V domains shown, IgG4 (S241P), kappa) VH: EVQLLESGGGLVQPGGSLRLSCAASGFTFTNHGMSWVRQAPGKGLEWVATISSGGTYTYYPDSVKGRFTISRDNSKNTLYLQMNSLKAEDTAMYYCARHDFDYDAAWFAYWGQGTLVTVSS VL: EIVLTQSPATLSLSPGERATLSCRANSAVSYMYWYQQKPGQAPRPWIYLTSNRATGVPARFSGSGSGTDYTLTISSLEPEDFAVYYCQQWSSNPPTFGQGTKLEIK | 610 | 0.059 | 96000 | 0.9 |

Now those with a lower Kd, led by results:

| Kd [nM] | koff [s⁻¹] | kon [M⁻¹ s⁻¹] | relative KD to parent | Binder |
| --- | --- | --- | --- | --- |
| 470 | 0.081 | 170000 | 1.2 | CP08F07/Vκ8 S29A (antibody, IgG4, V domains shown, IgG4 (S241P), kappa) VH: EVQLLESGGGLVQPGGSLRLSCAASGFTFTDHAISWVRQAPGKGLEWVATISSGGTYTYYPDSVKGRFTISRDNSKNTLYLQMNSLKAEDTAMYYCARHDFDYDAAWFAYWGQGTLVTVSS VL: EIVLTQSPATLSLSPGERATLSCRANSAVSYMYWYQQKPGQAPRPWIYLTSNRATGVPARFSGSGSGTDYTLTISSLEPEDFAVYYCQQWSSNPPTFGQGTKLEIK |
| 440 | 0.075 | 170000 | 1.3 | CP08A06/Vκ8 S29A (antibody, IgG4, V domains shown, IgG4 (S241P), kappa) VH: EVQLLESGGGLVQPGGSLRLSCAASGYSFSSHGMSWVRQAPGKGLEWVATISSGGTYTYYPDSVKGRFTISRDNSKNTLYLQMNSLKAEDTAMYYCARHDFDYDAAWFAYWGQGTLVTVSS VL: EIVLTQSPATLSLSPGERATLSCRANSAVSYMYWYQQKPGQAPRPWIYLTSNRATGVPARFSGSGSGTDYTLTISSLEPEDFAVYYCQQWSSNPPTFGQGTKLEIK |
| 430 | 0.039 | 93000 | 1.3 | CP08A03/Vκ8 S29A (antibody, IgG4, V domains shown, IgG4 (S241P), kappa) VH: EVQLLESGGGLVQPGGSLRLSCAASGFIFNNHAISWVRQAPGKGLEWVATISSGGTYTYYPDSVKGRFTISRDNSKNTLYLQMNSLKAEDTAMYYCARHDFDYDAAWFAYWGQGTLVTVSS VL: EIVLTQSPATLSLSPGERATLSCRANSAVSYMYWYQQKPGQAPRPWIYLTSNRATGVPARFSGSGSGTDYTLTISSLEPEDFAVYYCQQWSSNPPTFGQGTKLEIK |
| 420 | 0.044 | 110000 | 1.3 | CP08B06/Vκ8 S29A (antibody, IgG4, V domains shown, IgG4 (S241P), kappa) VH: EVQLLESGGGLVQPGGSLRLSCAASGFSFNSHAISWVRQAPGKGLEWVATISSGGTYTYYPDSVKGRFTISRDNSKNTLYLQMNSLKAEDTAMYYCARHDFDYDAAWFAYWGQGTLVTVSS VL: EIVLTQSPATLSLSPGERATLSCRANSAVSYMYWYQQKPGQAPRPWIYLTSNRATGVPARFSGSGSGTDYTLTISSLEPEDFAVYYCQQWSSNPPTFGQGTKLEIK |
| 410 | 0.049 | 120000 | 1.4 | CP08B04/Vκ8 S29A (antibody, IgG4, V domains shown, IgG4 (S241P), kappa) VH: EVQLLESGGGLVQPGGSLRLSCAASGFIFSSHGMSWVRQAPGKGLEWVATISSGGTYTYYPDSVKGRFTISRDNSKNTLYLQMNSLKAEDTAMYYCARHDFDYFPAWFALWGQGTLVTVSS VL: EIVLTQSPATLSLSPGERATLSCRANSAVSYMYWYQQKPGQAPRPWIYLTSNRATGVPARFSGSGSGTDYTLTISSLEPEDFAVYYCQQWSSNPPTFGQGTKLEIK |
| 360 | 0.069 | 200000 | 1.6 | CP08B03/Vκ8 S29A (antibody, IgG4, V domains shown, IgG4 (S241P), kappa) VH: EVQLLESGGGLVQPGGSLRLSCAASGFTFTAHAISWVRQAPGKGLEWVATISSGGTYTYYPDSVKGRFTISRDNSKNTLYLQMNSLKAEDTAMYYCARHDFDYDAAWFAYWGQGTLVTVSS VL: EIVLTQSPATLSLSPGERATLSCRANSAVSYMYWYQQKPGQAPRPWIYLTSNRATGVPARFSGSGSGTDYTLTISSLEPEDFAVYYCQQWSSNPPTFGQGTKLEIK |
| 300 | 0.043 | 140000 | 1.9 | CP08D01/Vκ8 S29A (antibody, IgG4, V domains shown, IgG4 (S241P), kappa) VH: EVQLLESGGGLVQPGGSLRLSCAASGFTFNAHGMSWVRQAPGKGLEWVATISSGGTYTYYPDSVKGRFTISRDNSKNTLYLQMNSLKAEDTAMYYCARHDFDYDAAWFAYWGQGTLVTVSS VL: EIVLTQSPATLSLSPGERATLSCRANSAVSYMYWYQQKPGQAPRPWIYLTSNRATGVPARFSGSGSGTDYTLTISSLEPEDFAVYYCQQWSSNPPTFGQGTKLEIK |
